# Experimental data: US10501502B2, “Allophycocyanin alpha-subunit evolved labeling proteins (smURFPs)” (The Regents of the University of California, priority 2016, dated 2019)
# Legend:
# [1] = Incorporation rates in vitro of BV on initially chromophore-free smURFP; type: biochemical
# Experimental: EX and EM spectra were obtained using SPEX Fluorolog fluorometer (Horiba). Absorbance spectra were obtained using UV-VIS Spectrophotometer Cary Eclipse (Varian) or UV-2700 (Shimadzu). Quantum yield was determined relative to Cy5. Incorporation rates of BV on 0.5 μM smURFP was performed by addition of smURFP to PBS alone or with 20% fetal bovine serum (FBS) and mixed by pipetting in a quartz cuvette. Chromophore was added last, mixed by pipetting, and fluorescence was recorded using SPEX Fluorolog fluorometer (Horiba). Photobleaching was characterized on bubbles of purified FP or Cy5 within mineral oil using light from a 150 W xenon arc lamp with 100% light through EX/EM=628(40)/680(30) nm for smURFP, TDsmURFP, and Cy5 or EX/EM=665 (45)/725 (50) nm for IFP 1.4 focused with a 40×, 1.2 numerical aperture C-Apochromat oil-immersion lens on a Zeiss Axiovert 200M inverted microscope. Photobleaching times were normalized to reflect an initial illumination intensity producing 1,000 photons per fluorescent molecule per second as previously described^37.
# primary cortical neurons = test: Rat primary neuronal cultures transduced with smURFP T2A mCherry lentivirus; type: cell-based; settings: 15 d after transduction
# Text: smURFP-T2A-mCherry (GenBank AY678264), smURFP-T2A-mCardinal, smURFP, and mCardinal (Addgene 51311) were subcloned in a generation-two lentiviral vector with the CMV promoter for constitutive expression. Viruses were produced as described^45. The procedures for extracting cultured neurons from rat pups were approved by the UCSD Institutional Animal Care and Use Committee (IACUC, #503172R) and are consistent with the recommendations of the American Veterinary Medical Association. Primary cortical neurons were dissociated by papain from postnatal day 2 Sprague Dawley rats (n=6) of either sex and combined, plated on poly-D-lysine-coated glass-bottom culture dishes (MatTek, #P35G-0-14-C), and cultured in Neurobasal A medium+1×B27 supplement (Life Technologies)+2 mM GlutaMAX (Life Technologies)+1×penicillin-streptomycin (Fisher Scientific). Prior to fluorescence imaging, 25 μM BV was added for 10 min, removed, and washed with 2×2 ml Hank's Balanced Salt Solution (HBSS, Life Technologies)+2 g/L glucose+20 mM HEPES (pH 7.4), referred to as imaging solution. Fluorescence imaging was performed in vitro 15 d after infection using a Zeiss Axiovert 200M inverted microscope controlled by SlideBook software. FPs were imaged as follows: smURFP and TDsmURFP, EX/EM=628(40)/680(30) nm; and mCherry, EX/EM=580(20)/653(95) nm.
# [2] = 0.5 μM smURFP in PBS + 20% FBS, + 0.1 μM BV
# [3] = 0.5 μM smURFP in PBS + 20% FBS, + 0.1 μM BV (pH 9.4)
# [4] = 0.5 μM smURFP in PBS + 20% FBS, + 0.1 μM BV + 1 mM DTT
# [5] = 0.5 μM smURFP in PBS + 20% FBS, + 1 μM BV
# [6] = 0.5 μM smURFP in PBS + 20% FBS, + 1 μM BV (pH 9.4)
# [7] = 0.5 μM smURFP in PBS + 20% FBS, + 1 μM BV + 1 mM DTT
# [8] = 0.5 μM smURFP in PBS + 20% FBS, + 10 μM BV
# [9] = 0.5 μM smURFP in PBS + 20% FBS, + 10 μM BV (pH 9.4)
# [10] = 0.5 μM smURFP in PBS + 20% FBS, + 10 μM BV + 1 mM DTT
# [11] = 0.5 μM smURFP in PBS + 20% FBS, Avg. 3 Conc.
# [12] = 0.5 μM smURFP in PBS + 20% FBS, Avg. 3 Conc. (pH 9.4)
# [13] = 0.5 μM smURFP in PBS + 20% FBS, Avg. 3 Conc. + 1 mM DTT
# [14] = 0.5 μM smURFP in PBS, + 0.1 μM BV
# [15] = 0.5 μM smURFP in PBS, + 0.1 μM BV (pH 8)
# [16] = 0.5 μM smURFP in PBS, + 0.1 μM BV + 1 mM DTT
# [17] = 0.5 μM smURFP in PBS, + 1 μM BV
# [18] = 0.5 μM smURFP in PBS, + 1 μM BV (pH 8)
# [19] = 0.5 μM smURFP in PBS, + 1 μM BV + 1 mM DTT
# [20] = 0.5 μM smURFP in PBS, + 10 μM BV
# [21] = 0.5 μM smURFP in PBS, + 10 μM BV (pH 8)
# [22] = 0.5 μM smURFP in PBS, + 10 μM BV + 1 mM DTT
# [23] = 0.5 μM smURFP in PBS, Avg. 3 Conc.
# [24] = 0.5 μM smURFP in PBS, Avg. 3 Conc. (pH 8)
# [25] = 0.5 μM smURFP in PBS, Avg. 3 Conc. + 1 mM DTT
molecule,measurement,setting,value
"smURFP: small ultra-red fluorescent protein, SEQ ID NO: 13, homodimer, covalently attaches biliverdin (protein, homodimer; biliverdin chromophore; smRUFP Variant Polypeptide) MKTSEQRVNIATLLTENKKKIVDKASQDLWRRHPDLIAPGGIAFSQRDRALCLRDYGWFLHLITFCLLAGDKGPIESIGLISIREMYNSLGVPVPAMMESIRCLKEASLSLLDEEDANETAPYFDYIIKAMS",A,[1]; [2],1.1
same,T50%,[1]; [2],43 min
same,k,[1]; [2],0.016 min⁻¹
same,A,[1]; [3],0.95
same,T50%,[1]; [3],7.1 min
same,k,[1]; [3],0.097 min⁻¹
same,A,[1]; [4],0.95
same,T50%,[1]; [4],30 min
same,k,[1]; [4],0.023 min⁻¹
same,A,[1]; [5],1.1
same,T50%,[1]; [5],58 min
same,k,[1]; [5],0.012 min⁻¹
same,A,[1]; [6],0.99
same,T50%,[1]; [6],16 min
same,k,[1]; [6],0.043 min⁻¹
same,A,[1]; [7],0.95
same,T50%,[1]; [7],32 min
same,k,[1]; [7],0.022 min⁻¹
same,A,[1]; [8],1.1
same,T50%,[1]; [8],46 min
same,k,[1]; [8],0.015 min⁻¹
same,A,[1]; [9],0.99
same,T50%,[1]; [9],11 min
same,k,[1]; [9],0.063 min⁻¹
same,A,[1]; [10],0.96
same,T50%,[1]; [10],16 min
same,k,[1]; [10],0.043 min⁻¹
same,A,[1]; [11],1.1
same,T50%,[1]; [11],50 min
same,k,[1]; [11],0.014 min⁻¹
same,A,[1]; [12],0.98
same,T50%,[1]; [12],11 min
same,k,[1]; [12],0.066 min⁻¹
same,A,[1]; [13],0.95
same,T50%,[1]; [13],24 min
same,k,[1]; [13],0.029 min⁻¹
same,A,[1]; [14],1.1
same,T50%,[1]; [14],29 min
same,k,[1]; [14],0.024 min⁻¹
same,A,[1]; [15],1.1
same,T50%,[1]; [15],24 min
same,k,[1]; [15],0.029 min⁻¹
same,A,[1]; [16],1.1
same,T50%,[1]; [16],58 min
same,k,[1]; [16],0.012 min⁻¹
same,A,[1]; [17],1.1
same,T50%,[1]; [17],46 min
same,k,[1]; [17],0.015 min⁻¹
same,A,[1]; [18],1.1
same,T50%,[1]; [18],24 min
same,k,[1]; [18],0.029 min⁻¹
same,A,[1]; [19],1.1
same,T50%,[1]; [19],63 min
same,k,[1]; [19],0.011 min⁻¹
same,A,[1]; [20],1.1
same,T50%,[1]; [20],46 min
same,k,[1]; [20],0.015 min⁻¹
same,A,[1]; [21],1.1
same,T50%,[1]; [21],22 min
same,k,[1]; [21],0.032 min⁻¹
same,A,[1]; [22],1.1
same,T50%,[1]; [22],46 min
same,k,[1]; [22],0.015 min⁻¹
same,A,[1]; [23],1.0
same,T50%,[1]; [23],39 min
same,k,[1]; [23],0.018 min⁻¹
same,A,[1]; [24],1.1
same,T50%,[1]; [24],2 min
same,k,[1]; [24],0.030 min⁻¹
same,A,[1]; [25],1.1
same,T50%,[1]; [25],53 min
same,k,[1]; [25],0.013 min⁻¹
same,chromophore maturation or attachment t50%,[1]; BV attachment,39^ min
same,lysosomal aggregation in neuronal culture,primary cortical neurons,not seen
